± gives the standard deviation of the averaged measurements.
B1: library; a variant is named by its letters at N, in order (parent)
chain: GAGACCGCAACTGAAAAGTTGTGGNNNNNATAGTGAGTCGCTGCCTGCAAAGACACAACT

Variants of: B1
Experiment: ligation selection enrichment (abundance after / before one-round selection) (fold); higher = more template-directed ligation activity
Settings: with T7Psub CACGGAUGCUAAUACGACUCACUAUA; MgCl2 25 mM; 42 °C; 4 h; pH 8.5
Method in brief: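 In each of two independent experiments, 6 μM RNA substrate was reacted for 4 h at 42 °C with 0.75 μM of a T7-transcribed RNA ligase library randomized at five core positions, in buffer containing 50 mM EPPS pH 8.5 and 25 mM MgCl2. Only reads scoring ≥30 in quality at all randomized positions were counted after MiSeq sequencing. Each enrichment value is the ratio of abundance after ligation to abundance before ligation.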

Variant	ligation selection enrichment
ACTGC	0.137 ± 0.025
ACTGG	0.421 ± 0.0057
GGATG	0.732 ± 0.14
GGATC	0.188 ± 0.03
AGACC	0.172 ± 0.011
AGACA	0.206 ± 0.011
AGACT	0.736 ± 0.21
GGTCC	0.277 ± 0.02
GGGAA	6.049 ± 0.019
GGGAT	167 ± 32
GGGAG	1.05 ± 0.051
ACACT	0.474 ± 0.18
ACACC	0.132 ± 0.0051
AAAGA	0.256 ± 0.0097
AAAGT	0.147 ± 0.088
AGTGA	0.842 ± 0.093
AGTGT	0.133 ± 0.035
GTAGC	0.191 ± 0.035
AAACT	1.21 ± 0.29
AAACC	0.196 ± 0.0049
GGGGA	0.608 ± 0.042
GCCCG	0.803 ± 0.034
GCCCA	0.209 ± 0.023
CTAAA	0.114 ± 0.017

Variant	ligation selection enrichment
CTAAC	0.146 ± 0.054
GTTCT	0.587 ± 0.17
GTTCA	0.545 ± 0.029
GTTCG	2.43 ± 0.41
AAATT	0.446 ± 0.12
AAATA	0.18 ± 0.034
AAATG	0.495 ± 0.067
CTGAA	0.424 ± 0.0081
GCATG	0.335 ± 0.012
GCATT	0.257 ± 0.043
GCATC	0.168 ± 0.016
GTTTC	0.169 ± 0.068
ACGTT	0.149 ± 0.0019
CGGAA	1.02 ± 0.075
CGGAT	57.6 ± 1.5
GTGAT	89.4 ± 3
GTGAC	4.35 ± 0.17
TGTGC	0.151 ± 0.015
TCTAA	0.0912 ± 0.0077
TCTAC	0.152 ± 0.03
TCTAG	0.285 ± 0.051
CCTCG	0.55 ± 0.064
TGCAA	0.289 ± 0.065
CAGCT	0.542 ± 0.24

Variant	ligation selection enrichment
GTTAC	0.3144 ± 0.0017
GTTAG	0.728 ± 0.01
GATCT	0.306 ± 0.085
GATCG	0.78 ± 0.097
GTGTT	0.277 ± 0.011
GTGTA	0.265 ± 0.083
CGATG	1.3 ± 0.22
CGATC	0.294 ± 0.018
CGATA	1.05 ± 0.21
CCTAC	0.14 ± 0.03
CCGAT	15.8 ± 4.6
AGATC	0.204 ± 0.0068
AGAGC	0.196 ± 0.028
AGAGT	0.253 ± 0.024
CATTG	1.24 ± 0.22
CATTA	0.16 ± 0.038
TCCAA	0.0717 ± 0.015
ATCCG	0.765 ± 0.036
TAGTC	0.182 ± 0.044
CTTAA	0.257 ± 0.012
CTTAT	0.512 ± 0.016
CTTAG	0.243 ± 0.0061
TGTCC	0.338 ± 0.055
TTACC	0.142 ± 0.02

Variant	ligation selection enrichment
TAAAG	0.553 ± 0.13
AGTCG	3.1 ± 0.045
AGTCT	0.506 ± 0.043
AGTCA	0.891 ± 0.1
CCGGC	0.1797 ± 0.00074
CCGGT	0.152 ± 0.021
ACGCA	0.248 ± 0.016
TTGGG	0.218 ± 0.023
TTGGC	0.191 ± 0.053
CGTAG	0.612 ± 0.083
CGTAC	0.447 ± 0.0085
CTTGG	0.278 ± 0.035
GTCAG	0.628 ± 0.038
GTCAC	0.221 ± 0.0092
TTTTG	1.05 ± 0.27
TTTTA	0.205 ± 0.0097
GTGCG	2.12 ± 0.13
GTGCC	0.209 ± 0.022
CAATC	0.136 ± 0.047
CAATA	0.143 ± 0.036
CAATT	0.343 ± 0.11
AGAAT	3.78 ± 0.51
AGAAG	0.4 ± 0.033
GGTGT	0.181 ± 0.16

Variant	ligation selection enrichment
GGTGG	0.374 ± 0.12
GGTGC	0.226 ± 0.03
TCACC	0.159 ± 0.0071
CAGTG	0.185 ± 0.004
TGCCG	0.559 ± 0.02
TGCCT	0.408 ± 0.18
TGCCC	0.1927 ± 0.0019
CTACC	0.116 ± 0.021
CTACA	0.114 ± 0.0039
AGCGC	0.269 ± 0.043
AGCGA	2.74 ± 0.25
CTAGC	0.123 ± 0.0069
TTCCA	0.142 ± 0.0024
TTCCG	0.813 ± 0.068
GAGTC	0.168 ± 0.0064
TCGAC	1.74 ± 0.36
CTATG	0.36 ± 0.029
CTATC	0.144 ± 0.0049
CTATT	0.546 ± 0.083
ATGCG	1.74 ± 0.19
ATGCT	0.505 ± 0.074
GCTAT	0.196 ± 0.035
TTTGA	0.78 ± 0.039
TTTGC	0.319 ± 0.085

Variant	ligation selection enrichment
GATTG	1.47 ± 0.2
CCAGA	0.297 ± 0.02
CCAGC	0.108 ± 0.022
ACCAC	0.165 ± 0.0072
TAGGG	0.637 ± 0.12
TGCTC	0.117 ± 0.022
TGCTG	0.17 ± 0.017
GAGCC	0.172 ± 0.0044
GAGCT	0.597 ± 0.27
CTCCC	0.0937 ± 0.042
CTCCA	0.1489 ± 0.00039
AATTT	0.624 ± 0.11
CATAG	0.237 ± 0.014
CATAT	1.2 ± 0.084
CGGGC	0.0737 ± 0.008
GGAAC	0.226 ± 0.0027
GGAAA	0.282 ± 0.011
ATATT	0.203 ± 0.037
TCATG	0.1699 ± 0.0013
GACCC	0.238 ± 0.057
GACCG	0.8601 ± 0.0032
CTCGG	0.161 ± 0.036
CACTA	0.157 ± 0.041
TACCG	0.574 ± 0.048

Variant	ligation selection enrichment
TCAAT	6.44 ± 2.6
TGCGT	0.168 ± 0.021
TGCGC	0.217 ± 0.02
TGCGG	0.221 ± 0.0095
GGCAA	0.423 ± 0.11
GGCAG	0.55 ± 0.028
GGCAC	0.395 ± 0.016
AACTG	0.506 ± 0.068
GGGCG	0.626 ± 0.07
GGGCC	0.243 ± 0.0042
GGGCT	0.765 ± 0.27
GAAGA	0.306 ± 0.024
GCACG	0.521 ± 0.053
CTTTT	0.63109 ± 0.00025
CGGTC	0.1 ± 0.011
CGGTA	0.133 ± 0.028
TACGC	0.1908 ± 0.0012
TACGT	0.169 ± 0.044
AGCTT	0.149 ± 0.13
AGCTG	0.198 ± 0.0052
CCAAA	0.162 ± 0.034
CCAAG	0.349 ± 0.024
CGCCG	0.43 ± 0.033

From the supplement of paper PMC10219994
